Measurements: paper PMC1669778

B1: 25mer duplex ML25/MC25 (dsDNA)
DNA 1: GAAAAAAGACTTAGAAAAATTTTTA
DNA 2: TAAAAATTTTTCTAAGTCTTTTTTC

Columns and labels:
[1] = target: C-terminal fragment of human topoisomerase I (HTOP14) (human) (UniProt P11387); experiment: fluorescence polarisation
[2] = target: small subunit of L.donovani topoisomerase I (LdTOP1S) (Leishmania donovani); experiment: fluorescence polarisation
[3] = target: C-terminal fragment of human topoisomerase I (HTOP14) (human) (UniProt P11387); experiment: pull-down
[4] = target: LdTOP1L-fus-HTOP14 (Leishmania donovani / human chimera, UniProt A0A3Q8IHS4 1-635+=EF+P11387:636-765, internal_change); experiment: SDS trapping of covalent complex

Row | Molecule | Kd [1] [nM] | Kd [2] [nM] | stoichiometry N [3] | binding signal [4]
1 | large subunit of L.donovani topoisomerase I (LdTOP1L) (natural protein) | 162 | 59.8 | 1 | 
2 | B1 |  |  |  | ~2 fold more covalent complex than LdTOP1L/S
